Source: patent US20190336615A1 (SILVERBACK THERAPEUTICS, published 2019)
One block for each binder: values may come before it.

Key:
[1] = target: T1, monomeric human CD40 extracellular domain (CD40 ECD) (human, UniProt P25942 21-193); experiment: BLI (Octet), antibody on anti-human Fc sensor, monomeric ECD analyte, 1:1 model
T1 construct: extracellular domain; it is not tied to the assay protein; also called Hu CD40
Text: (§1) The Octet systems use propriety BLI to analyze biomolecular interaction.

[2] = target: T2, monomeric human DEC205 extracellular domain (DEC205 ECD) (human, UniProt O60449 28-1666); experiment: as above
T2 construct: extracellular domain; none tied to the assay protein
Protocol: (§2) The Octet systems use propriety BLI to analyze biomolecular interaction. […] Data were analyzed using Octet Data Analysis Software 9.0 (ForteBio) and fitted to the 1:1 binding model. Equilibrium dissociation constants (KD) were calculated by the […].

[3] = target: T3, human HER2 expressed on transiently transfected CHO cells (human, UniProt P04626 23-1255); experiment: statement in the macrophage ADCC assay with HER2-expressing CHO cells
T3 construct: whole, on cells; also called HER2-expressing CHO cells; CHO-HER2
Protocol: Monocyte-derived macrophages were generated by culturing monocytes for 7 days in the presence of GM-CSF. […] After 24 hours, CHO viability was assessed by flow cytometry as a readout of ADCC activity.
Monocytes were isolated from human peripheral blood mononuclear cells (PBMCs) using magnetic bead-based negative selection and cultured 7 days in the presence of GM-CSF to generate macrophages. A CHO cell line was engineered to overexpress human HER2 using standard transient transfection methods and used in assays 2 days after transfection. […] After 24 hours, CHO frequency was assessed by flow cytometry as a readout of ADCC activity.

[4] = target: T4, monomeric human HER2 extracellular domain (HER2 ECD) (human, UniProt P04626 23-652); experiment: BLI (Octet), antibody on anti-human Fc sensor, monomeric ECD analyte, 1:1 model
T4 construct: extracellular domain; not tied to the assay protein; also called Hu Her2
Text: as §1

[5] = target: T5, monomeric human CEA extracellular domain (CEA ECD; CEACAM5) (human, UniProt P06731 35-685); experiment: as above
T5 construct: extracellular domain; not tied to the assay protein; also called CEACAM5 (CEA)
T5 sequence (looked up): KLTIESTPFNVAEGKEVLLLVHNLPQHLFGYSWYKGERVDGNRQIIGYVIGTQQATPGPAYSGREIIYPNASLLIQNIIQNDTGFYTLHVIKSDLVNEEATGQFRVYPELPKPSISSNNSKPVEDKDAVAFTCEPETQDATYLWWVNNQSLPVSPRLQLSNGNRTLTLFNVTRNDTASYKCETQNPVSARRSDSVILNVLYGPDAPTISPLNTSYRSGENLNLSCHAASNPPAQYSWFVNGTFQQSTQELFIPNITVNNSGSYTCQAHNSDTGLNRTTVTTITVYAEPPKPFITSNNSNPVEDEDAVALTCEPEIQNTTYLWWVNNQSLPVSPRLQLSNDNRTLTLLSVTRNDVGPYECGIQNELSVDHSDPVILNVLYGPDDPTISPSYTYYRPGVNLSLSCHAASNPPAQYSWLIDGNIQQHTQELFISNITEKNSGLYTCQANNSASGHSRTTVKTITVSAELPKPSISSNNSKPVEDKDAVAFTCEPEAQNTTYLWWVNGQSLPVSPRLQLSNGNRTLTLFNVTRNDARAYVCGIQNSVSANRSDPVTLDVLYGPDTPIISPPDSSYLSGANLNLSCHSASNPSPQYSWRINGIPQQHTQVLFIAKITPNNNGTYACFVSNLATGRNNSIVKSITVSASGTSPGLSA
Protocol: as §2

T1 sequence (P25942 21-193): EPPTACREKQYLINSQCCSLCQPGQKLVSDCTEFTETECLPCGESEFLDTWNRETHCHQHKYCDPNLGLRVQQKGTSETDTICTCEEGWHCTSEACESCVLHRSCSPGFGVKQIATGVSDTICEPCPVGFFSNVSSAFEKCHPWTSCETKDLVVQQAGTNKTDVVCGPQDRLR
T2 sequence (O60449 28-1666): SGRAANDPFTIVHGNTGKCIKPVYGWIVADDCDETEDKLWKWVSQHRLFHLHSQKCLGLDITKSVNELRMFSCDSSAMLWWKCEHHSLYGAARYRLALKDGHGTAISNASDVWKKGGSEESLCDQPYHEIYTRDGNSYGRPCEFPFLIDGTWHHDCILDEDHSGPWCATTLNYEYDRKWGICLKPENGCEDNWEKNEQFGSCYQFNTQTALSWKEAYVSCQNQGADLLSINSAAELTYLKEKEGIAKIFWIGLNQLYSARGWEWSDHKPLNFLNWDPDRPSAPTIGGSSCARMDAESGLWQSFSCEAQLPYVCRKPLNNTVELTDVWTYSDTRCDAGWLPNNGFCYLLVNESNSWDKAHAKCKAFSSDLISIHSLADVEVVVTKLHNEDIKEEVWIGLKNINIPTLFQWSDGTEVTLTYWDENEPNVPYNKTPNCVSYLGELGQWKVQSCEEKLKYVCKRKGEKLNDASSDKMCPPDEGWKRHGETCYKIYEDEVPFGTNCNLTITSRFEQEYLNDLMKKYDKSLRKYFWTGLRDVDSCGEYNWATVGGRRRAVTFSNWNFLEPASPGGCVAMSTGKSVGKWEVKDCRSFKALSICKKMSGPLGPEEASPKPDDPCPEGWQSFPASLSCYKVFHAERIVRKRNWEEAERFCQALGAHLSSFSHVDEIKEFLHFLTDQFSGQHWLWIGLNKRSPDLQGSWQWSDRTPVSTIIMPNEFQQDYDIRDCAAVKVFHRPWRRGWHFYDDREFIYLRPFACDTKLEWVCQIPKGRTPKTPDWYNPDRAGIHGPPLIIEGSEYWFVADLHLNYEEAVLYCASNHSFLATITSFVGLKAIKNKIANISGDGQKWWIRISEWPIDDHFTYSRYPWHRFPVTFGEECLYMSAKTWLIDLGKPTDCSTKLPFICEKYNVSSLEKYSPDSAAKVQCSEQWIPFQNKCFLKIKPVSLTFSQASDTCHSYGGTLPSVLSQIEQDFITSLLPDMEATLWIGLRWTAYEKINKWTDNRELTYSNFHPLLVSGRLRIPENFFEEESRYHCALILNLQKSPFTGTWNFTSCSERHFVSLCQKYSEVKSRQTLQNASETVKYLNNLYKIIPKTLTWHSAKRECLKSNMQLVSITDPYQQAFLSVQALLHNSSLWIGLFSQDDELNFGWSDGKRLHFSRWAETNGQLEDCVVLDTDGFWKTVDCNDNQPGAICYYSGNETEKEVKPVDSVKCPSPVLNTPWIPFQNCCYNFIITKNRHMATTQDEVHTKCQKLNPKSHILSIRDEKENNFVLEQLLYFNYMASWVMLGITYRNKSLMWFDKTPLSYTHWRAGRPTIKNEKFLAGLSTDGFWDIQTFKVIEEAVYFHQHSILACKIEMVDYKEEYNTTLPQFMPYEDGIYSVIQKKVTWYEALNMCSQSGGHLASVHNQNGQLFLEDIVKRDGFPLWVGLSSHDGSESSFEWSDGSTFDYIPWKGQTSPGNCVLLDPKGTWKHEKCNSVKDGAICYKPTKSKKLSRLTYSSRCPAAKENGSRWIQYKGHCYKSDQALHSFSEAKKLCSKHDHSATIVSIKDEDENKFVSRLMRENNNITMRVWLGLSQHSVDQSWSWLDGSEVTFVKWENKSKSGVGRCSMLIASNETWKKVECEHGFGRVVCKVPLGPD

binding result [1]: no binding (tested: 1.2 nM to 300 nM) | binding result [2]: no binding (tested: 1.2 nM to 300 nM)
B1: parental anti-HER2 monoclonal antibody (SBT-050G1), pertuzumab (antibody, human IgG1, kappa)
heavy: not shown
light: not shown
notes: also called Parental anti-HER2 antibody; Parental Anti-HER2 Antibody

binding result [3]: no binding | binding result [4]: no binding (tested: 1.2 nM to 300 nM) | binding result [5]: no binding (tested: 1.2 nM to 300 nM)
B2: parental anti-CD40 monoclonal antibody (SBT-040G1) (antibody, human IgG1, kappa)
heavy: not shown
light: DIQMTQSPSSVSASVGDRVTITCRASQGIYSWLAWYQQKPGKAPNLLIYTASTLQSGVPSRFSGSGSGTDFTLTISSLQPEDFATYYCQQANIFPLTFGGGTKVEIKRTVAAPSVFIFPPSDEQLKSGTASVVCLLNNFYPREAKVQWKVDNALQSGNSQESVTEQDSKDSTYSLSSTLTLSKADYEKHKVYACEVTHQGLSSPVTKSFNRGEC
notes: Human IgG1 anti-CD40; also called Parental anti-CD40 antibody; Parental Anti-CD40 Antibody
